Data reported in US20190330323A1 (UCB, published 2019).
Numbering of substitutions follows the chain as printed.

T1: mouse Gremlin (mouse, UniProt O70326 25-184)
T1 sequence (looked up): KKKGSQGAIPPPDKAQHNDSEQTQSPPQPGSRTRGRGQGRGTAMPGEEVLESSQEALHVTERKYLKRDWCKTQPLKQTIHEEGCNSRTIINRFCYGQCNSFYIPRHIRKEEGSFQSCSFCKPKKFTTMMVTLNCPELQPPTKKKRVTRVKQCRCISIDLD

T2: BMP4/7 heterodimer (human, UniProt P12644 293-408; P18075 293-431)
T2 sequence (looked up) 1: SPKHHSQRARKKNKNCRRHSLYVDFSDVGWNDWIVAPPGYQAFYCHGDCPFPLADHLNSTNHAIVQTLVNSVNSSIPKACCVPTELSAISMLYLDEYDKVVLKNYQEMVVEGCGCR
T2 sequence (looked up) 2: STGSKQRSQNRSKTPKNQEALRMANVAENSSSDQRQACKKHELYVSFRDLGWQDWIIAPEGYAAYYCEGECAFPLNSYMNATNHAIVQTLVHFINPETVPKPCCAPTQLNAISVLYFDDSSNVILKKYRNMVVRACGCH

B1: Ab7326 (as tested in the screening assays of Example 5) (antibody, V domains shown)
VH: QVQLVESGAEVKKPGATVKISCKVSGYTFTDYYMHWVQQAPGKGLEWMGLVDPEDGETIYAEKFQGRVTITADTSTDTAYMELSSLRSEDTAVYYCATDARGSGSYYPNHFDYWGQGTLVTVSS
VL: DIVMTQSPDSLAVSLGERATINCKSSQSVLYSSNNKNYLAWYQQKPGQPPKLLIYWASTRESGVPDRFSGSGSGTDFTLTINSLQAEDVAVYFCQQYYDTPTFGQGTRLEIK
B2: human Gremlin-1 (recombinant, full length) (ligand)
chain: T1 sequence (looked up) with P27Q, T33N
B3: truncated human Gremlin-1 (E. coli, refolded, N-terminal 6His-TEV tag) (ligand)
chain: MGSSHHHHHHSSGENLYFQGSAMPGEEVLESSQEALHVTERKYLKRDWCKTQPLKQTIHEEGCNSRTIINRFCYGQCNSFYIPRHIRKEEGSFQSCSFCKPKKFTTMMVTLNCPELQPPTKKKRVTRVKQCRCISIDLD

Tests used:
Experiment in all cases: cell-based or functional assay
[1] = target: B2
mouse Gremlin = target: T1, mouse Gremlin
BMP4/7 heterodimer [2] = target: T2, BMP4/7 heterodimer
BMP4/7 heterodimer [3] = target: T2, BMP4/7 heterodimer; remark: listed apart in the source

## B1
[1]
  IC50, restoration of BMP signalling, Hek-Id1 reporter gene assay: 1.3 nM
Mouse Gremlin
  IC50, restoration of BMP signalling, Hek-Id1 reporter gene assay: 0.2 nM

## B2
BMP4/7 heterodimer [2]
  IC50, Geometric mean (nM), Hek-Id1 reporter gene assay, N = 2: 1.6 nM

## B3
BMP4/7 heterodimer [2]
  IC50, Geometric mean (nM), Hek-Id1 reporter gene assay, N = 2: 1.7 nM
BMP4/7 heterodimer [3]
  IC50 (read off the curve) [B]: ~3 nM
